Reference: US20250361274A1, “PEPTIDE AND PEPTIDE-CONTAINING AGENT” (PEPTIDREAM INC., priority 2022, published 2025)
Numbered stars: 1 amine (or outer) side, 2 acyl side, 3 side chain; on linkers, the order of the positions; unused ones are H or OH. Bridge positions count the residues as written; N and C are the ends. Square brackets hold non-standard residues; d marks the D form. KCOpipzaa = N6-(4-(carboxymethyl)piperazine-1-carbonyl)-L-lysine, O=C(NCCCC[C@H](N[*:1])C(=O)[*:2])N1CCN(CC(=O)[*:3])CC1; 3Pal(6-Ph) = N[C@@H](Cc1ccc(-c2ccccc2)nc1)C(=O)O; Phe(4-COOH) = N[C@@H](Cc1ccc(C(=O)O)cc1)C(=O)O; Pro(trans-4-F) = O=C(O)[C@@H]1C[C@@H](F)CN1; Bip = N[C@@H](Cc1ccc(-c2ccccc2)cc1)C(=O)O; Pro(cis-4-F) = O=C(O)[C@@H]1C[C@H](F)CN1; Phe(4-F) = N[C@@H](Cc1ccc(F)cc1)C(=O)O; Pro(4,4-F2) = O=C(O)[C@@H]1CC(F)(F)CN1; 4Pal = N[C@@H](Cc1ccncc1)C(=O)O; βAla = NCCC(=O)O

Tests used:
BMP4 = target: T1, BMP4 (Homo sapiens, UniProt P12644); assay: BMP4 signal transduction inhibitory activity: SMAD1 phosphorylation by BMP4 stimulus, AlphaLISA SureFire, A549 cells; format: cell-based; conditions: inhibition of SMAD1 phosphorylation by BMP4 stimulus, A549 cells; peptides of Synthesis 2; classes A-C, ND
T1 sequence (P12644 293-408): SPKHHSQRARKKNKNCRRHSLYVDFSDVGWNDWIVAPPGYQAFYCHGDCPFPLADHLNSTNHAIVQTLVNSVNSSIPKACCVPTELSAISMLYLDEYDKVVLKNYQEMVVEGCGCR

BMP7 = target: T2, BMP7 (Homo sapiens, UniProt P18075); assay: BMP7 signal transduction inhibitory activity: SMAD1 phosphorylation by BMP7 stimulus, A549 cells; format: cell-based; conditions: inhibition of SMAD1 phosphorylation by BMP7 stimulus, A549 cells; peptides of Synthesis 2; classes A-D, ND
T2 sequence (P18075 293-431): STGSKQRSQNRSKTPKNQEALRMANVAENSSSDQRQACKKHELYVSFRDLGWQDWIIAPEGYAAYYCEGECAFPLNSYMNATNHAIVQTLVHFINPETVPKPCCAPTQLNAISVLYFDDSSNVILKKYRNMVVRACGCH
Summary of the method: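 Inhibition was measured as loss of BMP7-induced SMAD1 phosphorylation, using 10 nM BMP7 on A549 cells. Most peptides were given as three-concentration sets, such as 1/10/100, 10/100/1,000, 100/300/1,000 or 10/30/90 nM. Others were given as eight 1/3-ratio dilutions from 100 or 1,000 nM, alongside Noggin as control.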

Row | Substance | aLISA BMP4 (BMP4) | aLISA BMP7 (BMP7)
1 | 92 ({CH2CO}-EKVYVDK[Bip]YYV[Bip][Phe(4-F)][Phe(4-COOH)][4Pal]SCG-NH2; thioether N-17; not fully specified) [compound 92] | C (showed an inhibitory activity of less than 50% in 0.2 nM-addition zone and showed an inhibitory activity of 50% or more in 2 nM-addition zone were defined as B or C) | C (showed less than 50% of inhibitory activity in 10 nM-addition zone and showed 50% or more of inhibitory activity in 100 nM-addition zone)
2 | 94 ({CH2CO}-A[KCOpipzaa]VYV[KCOpipzaa]R[Bip]PYV[Bip]Y[Phe(4-COOH)][Phe(4-COOH)]SC[βAla][dE]-OH; thioether N-17; not fully specified) [compound 94] | A (showed an inhibitory activity of 50% or more in a zone to which the peptide was added to in an amount of 0.2 nM) | C (showed less than 50% of inhibitory activity in 10 nM-addition zone and showed 50% or more of inhibitory activity in 100 nM-addition zone)
3 | 95 ({CH2CO}-ERVYVDR[Bip]SYP[Bip]Y[Phe(4-COOH)][Phe(4-COOH)]SC[βAla][dE]-OH; thioether N-17; not fully specified) [compound 95] | A (showed an inhibitory activity of 50% or more in a zone to which the peptide was added to in an amount of 0.2 nM) | C (showed less than 50% of inhibitory activity in 10 nM-addition zone and showed 50% or more of inhibitory activity in 100 nM-addition zone)
4 | 96 ({CH2CO}-ERVYVDR[3Pal(6-Ph)]SYP[Bip]Y[Phe(4-COOH)][Phe(4-COOH)]SC[βAla][dE]-OH; thioether N-17; not fully specified) [compound 96] | A (showed an inhibitory activity of 50% or more in a zone to which the peptide was added to in an amount of 0.2 nM) | C (showed less than 50% of inhibitory activity in 10 nM-addition zone and showed 50% or more of inhibitory activity in 100 nM-addition zone)
5 | 97 ({CH2CO}-ERVYV[KCOpipzaa]R[Bip]SYP[Bip]Y[Phe(4-COOH)][Phe(4-COOH)]SC[βAla][dE]-OH; thioether N-17; not fully specified) [compound 97] | A (showed an inhibitory activity of 50% or more in a zone to which the peptide was added to in an amount of 0.2 nM) | B (showed less than 50% of inhibitory activity in 1 nM-addition zone and showed 50% or more of inhibitory activity in 10 nM-addition zone)
6 | 98 ({CH2CO}-ERVYV[KCOpipzaa]R[3Pal(6-Ph)]SYP[Bip]Y[Phe(4-COOH)][Phe(4-COOH)]SC[βAla][dE]-OH; thioether N-17; not fully specified) [compound 98] | A (showed an inhibitory activity of 50% or more in a zone to which the peptide was added to in an amount of 0.2 nM) | C (showed less than 50% of inhibitory activity in 10 nM-addition zone and showed 50% or more of inhibitory activity in 100 nM-addition zone)
7 | 99 ({CH2CO}-E[KCOpipzaa]VYVDR[Bip]SYP[Bip]Y[Phe(4-COOH)][Phe(4-COOH)]SC[βAla][dE]-OH; thioether N-17; not fully specified) [compound 99] | A (showed an inhibitory activity of 50% or more in a zone to which the peptide was added to in an amount of 0.2 nM) | C (showed less than 50% of inhibitory activity in 10 nM-addition zone and showed 50% or more of inhibitory activity in 100 nM-addition zone)
8 | 100 ({CH2CO}-E[KCOpipzaa]VYV[KCOpipzaa]R[Bip]SYP[Bip]Y[Phe(4-COOH)][Phe(4-COOH)]SC[βAla][dE]-OH; thioether N-17; not fully specified) [compound 100] | A (showed an inhibitory activity of 50% or more in a zone to which the peptide was added to in an amount of 0.2 nM) | C (showed less than 50% of inhibitory activity in 10 nM-addition zone and showed 50% or more of inhibitory activity in 100 nM-addition zone)
9 | 101 ({CH2CO}-E[KCOpipzaa]VYV[KCOpipzaa]R[3Pal(6-Ph)]SYP[Bip]Y[Phe(4-COOH)][Phe(4-COOH)]SC[βAla][dE]-OH; thioether N-17; not fully specified) [compound 101] | A (showed an inhibitory activity of 50% or more in a zone to which the peptide was added to in an amount of 0.2 nM) | C (showed less than 50% of inhibitory activity in 10 nM-addition zone and showed 50% or more of inhibitory activity in 100 nM-addition zone)
10 | 102 ({CH2CO}-E[KCOpipzaa]VYV[KCOpipzaa]R[Bip]SYV[Bip]Y[Phe(4-COOH)][Phe(4-COOH)]SC[βAla][dE]-OH; thioether N-17; not fully specified) [compound 102] | C (showed an inhibitory activity of less than 50% in 0.2 nM-addition zone and showed an inhibitory activity of 50% or more in 2 nM-addition zone were defined as B or C) | C (showed less than 50% of inhibitory activity in 10 nM-addition zone and showed 50% or more of inhibitory activity in 100 nM-addition zone)
11 | 103 ({CH2CO}-ERV[Phe(4-COOH)]V[KCOpipzaa]R[Bip]SYP[Bip]Y[Phe(4-COOH)][Phe(4-COOH)]SC[βAla][dE]-OH; thioether N-17; not fully specified) [compound 103] | A (showed an inhibitory activity of 50% or more in a zone to which the peptide was added to in an amount of 0.2 nM) | A (showed 50% or more of inhibitory activity in a zone to which the peptide was added in an amount of 1 nM)
12 | 109 ({CH2CO}-ERVYVDR[Bip]PY[Pro(cis-4-F)][Bip]Y[Phe(4-COOH)][Phe(4-COOH)]SC[βAla][dE]-OH; thioether N-17; not fully specified) [compound 109] | C (showed an inhibitory activity of less than 50% in 0.2 nM-addition zone and showed an inhibitory activity of 50% or more in 2 nM-addition zone were defined as B or C) | C (showed less than 50% of inhibitory activity in 10 nM-addition zone and showed 50% or more of inhibitory activity in 100 nM-addition zone)
13 | 110 ({CH2CO}-ERVYVDR[Bip]PY[Pro(trans-4-F)][Bip]Y[Phe(4-COOH)][Phe(4-COOH)]SC[βAla][dE]-OH; thioether N-17; not fully specified) [compound 110] | A (showed an inhibitory activity of 50% or more in a zone to which the peptide was added to in an amount of 0.2 nM) | B (showed less than 50% of inhibitory activity in 1 nM-addition zone and showed 50% or more of inhibitory activity in 10 nM-addition zone)
14 | 111 ({CH2CO}-ERVYVDR[Bip]PY[Pro(4,4-F2)][Bip]Y[Phe(4-COOH)][Phe(4-COOH)]SC[βAla][dE]-OH; thioether N-17; not fully specified) [compound 111] | A (showed an inhibitory activity of 50% or more in a zone to which the peptide was added to in an amount of 0.2 nM) | C (showed less than 50% of inhibitory activity in 10 nM-addition zone and showed 50% or more of inhibitory activity in 100 nM-addition zone)
15 | 114 (EKVYVKRFPYPFYFFSCG; not fully specified; MOD_RES 2 K represents N6-(4-(Carboxymethyl) piperazine-1-carbonyl)-L-lysine(KCOpipzaa); MOD_RES 6 K represents N6-(4-(Carboxymethyl) piperazine-1-carbonyl)-L-lysine(KCOpipzaa); MOD_RES 8 F represents (S)-3-(1,1'-Biphenyl-4-yl)-2-aminopropanoic acid(Bph); MOD_RES 12 F represents (S)-3-(1,1'-Biphenyl-4-yl)-2-aminopropanoic acid(Bph); MOD_RES 14 F represents (S)-4-(2-amino-2-carboxyethyl)benzoic aci) [compound 114] | A (showed an inhibitory activity of 50% or more in a zone to which the peptide was added to in an amount of 0.2 nM) | C (showed less than 50% of inhibitory activity in 10 nM-addition zone and showed 50% or more of inhibitory activity in 100 nM-addition zone)
16 | 115 (EKVYVKRFPYPFYFFSCG; not fully specified; MOD_RES 2 K represents N6-(4-(Carboxymethyl) piperazine-1-carbonyl)-L-lysine(KCOpipzaa); MOD_RES 6 K represents N6-(4-(Carboxymethyl) piperazine-1-carbonyl)-L-lysine(KCOpipzaa); MOD_RES 8 F represents (S)-3-(1,1'-Biphenyl-4-yl)-2-aminopropanoic acid(Bph); MOD_RES 12 F represents (S)-3-(1,1'-Biphenyl-4-yl)-2-aminopropanoic acid(Bph); MOD_RES 14 F represents (S)-4-(2-amino-2-carboxyethyl)benzoic aci) [compound 115] | A (showed an inhibitory activity of 50% or more in a zone to which the peptide was added to in an amount of 0.2 nM) | C (showed less than 50% of inhibitory activity in 10 nM-addition zone and showed 50% or more of inhibitory activity in 100 nM-addition zone)
